Experimental data as given in patent US20240327497A1.
Values joined by “and” are separate entries in the source; they are usually repeats but may differ in a detail not shown here. Identical values can stand only once.

Tests used:
[1] = biological target: canine FcRn (FcRn large subunit with canine beta-2-microglobulin) (canine); assay: SPR pH 5.5, SASA-Fc captured on BSA, FcRn 200 nM
[2] = biological target: canine FcRn (FcRn large subunit with canine beta-2-microglobulin) (canine); assay: SPR pH 7.4, FcRn coupled at high density, IgG 400 nM
[3] = biological target: canine FcRn (FcRn large subunit with canine beta-2-microglobulin) (canine); assay: SPR pH 6.0, IgG coupled to CM5, FcRn 50-800 nM
[4] = biological target: canine FcRn (FcRn large subunit with canine beta-2-microglobulin) (canine); assay: SPR pH 6.0, SASA-Fc captured on BSA, FcRn 100-800 nM
[5] = biological target: canine FcRn (FcRn large subunit with canine beta-2-microglobulin) (canine); assay: SPR pH 6.0, SASA-Fc captured on BSA, FcRn 200 nM
[6] = biological target: canine FcRn (FcRn large subunit with canine beta-2-microglobulin) (canine); assay: SPR pH 5.9, IgG coupled to C1 chip, 1:1 kinetic fit
[7] = biological target: canine FcRn (FcRn large subunit with canine beta-2-microglobulin) (canine); assay: SPR pH 5.5, SASA-Fc captured on BSA, FcRn 100-800 nM

Kd [2] [nM]	koff [2] [s⁻¹]	kon [2] [M⁻¹ s⁻¹]	Kd [3] [nM]	koff [3] [s⁻¹]	kon [3] [M⁻¹ s⁻¹]	Kd [4] [nM]	koff [4] [s⁻¹]	kon [4] [M⁻¹ s⁻¹]	Kd [5]	koff [5]	kon [5]	Kd [6] [nM]	koff [6] [s⁻¹]	kon [6] [M⁻¹ s⁻¹]	Binder	also measured
						565	0.195	345000	127 nM and 118 nM	0.0982 s⁻¹ and 0.112 s⁻¹	774000 M⁻¹ s⁻¹ and 945000 M⁻¹ s⁻¹				canine IgGB Fc (CH2-CH3) T286W with N-terminal SASA tag (Fc fusion, part only; not given: SASA tag, not shown: another chain or arm of the molecule; small tags and cut ends) Fc: APEMLGGPSVFIFPPKPKDTLLIARTPEVTCVVVDLDPEDPEVQISWFVDGKQMQWAKTQPREEQFNGTYRVVSVLPIGHQDWLKGKQFTCKVNNKALPSPIERTISKARGQAHQPSVYVLPPSREELSKNTVSLTCLIKDFFPPDIDVEWQSNGQQEPESKYRTTPPQLDEDGSYFLYSKLSVDKSRWQRGDTFICAVMHEALHNHYTQESLSHSPGK	
						386	0.145	375000	447 nM and 532 nM	0.134 s⁻¹ and 0.141 s⁻¹	300000 M⁻¹ s⁻¹ and 265000 M⁻¹ s⁻¹				canine IgGB Fc (CH2-CH3) Y436H with N-terminal SASA tag (Fc fusion, part only; not given: SASA tag, not shown: another chain or arm of the molecule; small tags and cut ends) Fc: APEMLGGPSVFIFPPKPKDTLLIARTPEVTCVVVDLDPEDPEVQISWFVDGKQMQTAKTQPREEQFNGTYRVVSVLPIGHQDWLKGKQFTCKVNNKALPSPIERTISKARGQAHQPSVYVLPPSREELSKNTVSLTCLIKDFFPPDIDVEWQSNGQQEPESKYRTTPPQLDEDGSYFLYSKLSVDKSRWQRGDTFICAVMHEALHNHHTQESLSHSPGK	
						210	0.0659	314000							canine IgGB Fc (CH2-CH3) YTE variant (L252Y/A254T/T256E) with N-terminal SASA tag (Fc fusion, part only; not given: SASA tag, not shown: another chain or arm of the molecule; small tags and cut ends) Fc: APEMLGGPSVFIFPPKPKDTLYITREPEVTCVVVDLDPEDPEVQISWFVDGKQMQTAKTQPREEQFNGTYRVVSVLPIGHQDWLKGKQFTCKVNNKALPSPIERTISKARGQAHQPSVYVLPPSREELSKNTVSLTCLIKDFFPPDIDVEWQSNGQQEPESKYRTTPPQLDEDGSYFLYSKLSVDKSRWQRGDTFICAVMHEALHNHYTQESLSHSPGK	Kd [7]: 184 nM; koff [7]: 0.046 s⁻¹; kon [7]: 250000 M⁻¹ s⁻¹
						632	0.162	256000	69.8 nM and 116 nM		410000 M⁻¹ s⁻¹ and 1.11e+06 M⁻¹ s⁻¹				canine IgGB Fc (CH2-CH3) T286Y with N-terminal SASA tag (Fc fusion, part only; not given: SASA tag, not shown: another chain or arm of the molecule; small tags and cut ends) Fc: APEMLGGPSVFIFPPKPKDTLLIARTPEVTCVVVDLDPEDPEVQISWFVDGKQMQYAKTQPREEQFNGTYRVVSVLPIGHQDWLKGKQFTCKVNNKALPSPIERTISKARGQAHQPSVYVLPPSREELSKNTVSLTCLIKDFFPPDIDVEWQSNGQQEPESKYRTTPPQLDEDGSYFLYSKLSVDKSRWQRGDTFICAVMHEALHNHYTQESLSHSPGK	

Further lines, the binder ahead of its results:

Binder	Kd [2] [nM]	koff [2] [s⁻¹]	kon [2] [M⁻¹ s⁻¹]	Kd [3] [nM]	koff [3] [s⁻¹]	kon [3] [M⁻¹ s⁻¹]	Kd [4] [nM]	koff [4] [s⁻¹]	kon [4] [M⁻¹ s⁻¹]	Kd [5]	koff [5]	kon [5]	Kd [6] [nM]	koff [6] [s⁻¹]	kon [6] [M⁻¹ s⁻¹]	also measured
canine IgGB Fc (CH2-CH3) N434S with N-terminal SASA tag (Fc fusion, part only; not given: SASA tag, not shown: another chain or arm of the molecule; small tags and cut ends) Fc: APEMLGGPSVFIFPPKPKDTLLIARTPEVTCVVVDLDPEDPEVQISWFVDGKQMQTAKTQPREEQFNGTYRVVSVLPIGHQDWLKGKQFTCKVNNKALPSPIERTISKARGQAHQPSVYVLPPSREELSKNTVSLTCLIKDFFPPDIDVEWQSNGQQEPESKYRTTPPQLDEDGSYFLYSKLSVDKSRWQRGDTFICAVMHEALHSHYTQESLSHSPGK																Kd [1]: 924 nM and 1050 nM; koff [1]: 0.207 s⁻¹ and 0.209 s⁻¹; kon [1]: 225000 M⁻¹ s⁻¹ and 199000 M⁻¹ s⁻¹
anti-NGF canine IgGB antibody, Fc variant N434Y (antibody, part only; not given: Anti-NGF variable domains, not shown: another chain or arm of the molecule) Fc: APEMLGGPSVFIFPPKPKDTLLIARTPEVTCVVVDLDPEDPEVQISWFVDGKQMQTAKTQPREEQFNGTYRVVSVLPIGHQDWLKGKQFTCKVNNKALPSPIERTISKARGQAHQPSVYVLPPSREELSKNTVSLTCLIKDFFPPDIDVEWQSNGQQEPESKYRTTPPQLDEDGSYFLYSKLSVDKSRWQRGDTFICAVMHEALHYHYTQESLSHSPGK	80.2	0.23	2.87e+06	70.8	0.0181	255000										
canine IgGB Fc (CH2-CH3) T286F with N-terminal SASA tag (Fc fusion, part only; not given: SASA tag, not shown: another chain or arm of the molecule; small tags and cut ends) Fc: APEMLGGPSVFIFPPKPKDTLLIARTPEVTCVVVDLDPEDPEVQISWFVDGKQMQFAKTQPREEQFNGTYRVVSVLPIGHQDWLKGKQFTCKVNNKALPSPIERTISKARGQAHQPSVYVLPPSREELSKNTVSLTCLIKDFFPPDIDVEWQSNGQQEPESKYRTTPPQLDEDGSYFLYSKLSVDKSRWQRGDTFICAVMHEALHNHYTQESLSHSPGK							616	0.19	309000	157 nM and 185 nM	0.0527 s⁻¹ and 0.061 s⁻¹	336000 M⁻¹ s⁻¹ and 330000 M⁻¹ s⁻¹				
canine IgGB Fc (CH2-CH3) T286L with N-terminal SASA tag (Fc fusion, part only; not given: SASA tag, not shown: another chain or arm of the molecule; small tags and cut ends) Fc: APEMLGGPSVFIFPPKPKDTLLIARTPEVTCVVVDLDPEDPEVQISWFVDGKQMQLAKTQPREEQFNGTYRVVSVLPIGHQDWLKGKQFTCKVNNKALPSPIERTISKARGQAHQPSVYVLPPSREELSKNTVSLTCLIKDFFPPDIDVEWQSNGQQEPESKYRTTPPQLDEDGSYFLYSKLSVDKSRWQRGDTFICAVMHEALHNHYTQESLSHSPGK							777	0.253	325000	174 nM and 208 nM	0.0565 s⁻¹ and 0.103 s⁻¹	324000 M⁻¹ s⁻¹ and 496000 M⁻¹ s⁻¹				
anti-NGF canine IgGB antibody, Fc variant A426H + D312P (antibody, part only; not given: Anti-NGF variable domains, not shown: another chain or arm of the molecule; small tags and cut ends) Fc: APEMLGGPSVFIFPPKPKDTLLIARTPEVTCVVVDLDPEDPEVQISWFVDGKQMQTAKTQPREEQFNGTYRVVSVLPIGHQPWLKGKQFTCKVNNKALPSPIERTISKARGQAHQPSVYVLPPSREELSKNTVSLTCLIKDFFPPDIDVEWQSNGQQEPESKYRTTPPQLDEDGSYFLYSKLSVDKSRWQRGDTFICHVMHEALHNHYTQESLSHSPGK	722	0.156	217000	376	0.0547	145000							40.5	0.0532	1.31e+06	
anti-NGF canine IgGB antibody, Fc variant A426Y + T286L (antibody, part only; not given: Anti-NGF variable domains, not shown: another chain or arm of the molecule; small tags and cut ends) Fc: APEMLGGPSVFIFPPKPKDTLLIARTPEVTCVVVDLDPEDPEVQISWFVDGKQMQLAKTQPREEQFNGTYRVVSVLPIGHQDWLKGKQFTCKVNNKALPSPIERTISKARGQAHQPSVYVLPPSREELSKNTVSLTCLIKDFFPPDIDVEWQSNGQQEPESKYRTTPPQLDEDGSYFLYSKLSVDKSRWQRGDTFICYVMHEALHNHYTQESLSHSPGK	1120	0.092	82300	327	0.0559	171000							42.3	0.0436	1.03e+06	
anti-NGF canine IgGB antibody, Fc variant A426H + T286L (antibody, part only; not given: Anti-NGF variable domains, not shown: another chain or arm of the molecule; small tags and cut ends) Fc: APEMLGGPSVFIFPPKPKDTLLIARTPEVTCVVVDLDPEDPEVQISWFVDGKQMQLAKTQPREEQFNGTYRVVSVLPIGHQDWLKGKQFTCKVNNKALPSPIERTISKARGQAHQPSVYVLPPSREELSKNTVSLTCLIKDFFPPDIDVEWQSNGQQEPESKYRTTPPQLDEDGSYFLYSKLSVDKSRWQRGDTFICHVMHEALHNHYTQESLSHSPGK	1600	0.13	81200	464	0.069	149000							35.8	0.0417	1.16e+06	
anti-NGF canine IgGB antibody, Fc variant A426Y + D312P (antibody, part only; not given: anti-NGF variable domains and light chain, not shown: another chain or arm of the molecule; small tags and cut ends) Fc: APEMLGGPSVFIFPPKPKDTLLIARTPEVTCVVVDLDPEDPEVQISWFVDGKQMQTAKTQPREEQFNGTYRVVSVLPIGHQPWLKGKQFTCKVNNKALPSPIERTISKARGQAHQPSVYVLPPSREELSKNTVSLTCLIKDFFPPDIDVEWQSNGQQEPESKYRTTPPQLDEDGSYFLYSKLSVDKSRWQRGDTFICYVMHEALHNHYTQESLSHSPGK	2900	0.171	58900	421	0.0577	137000							45.1	0.0497	1.1e+06	
anti-NGF canine IgGB antibody, Fc variant A426H + T286Y (antibody, part only; not given: anti-NGF variable domains and light chain, not shown: another chain or arm of the molecule; small tags and cut ends) Fc: APEMLGGPSVFIFPPKPKDTLLIARTPEVTCVVVDLDPEDPEVQISWFVDGKQMQYAKTQPREEQFNGTYRVVSVLPIGHQDWLKGKQFTCKVNNKALPSPIERTISKARGQAHQPSVYVLPPSREELSKNTVSLTCLIKDFFPPDIDVEWQSNGQQEPESKYRTTPPQLDEDGSYFLYSKLSVDKSRWQRGDTFICHVMHEALHNHYTQESLSHSPGK	940	0.128	136000	255	0.0409	160000							21.3	0.0286	1.34e+06	
